The target in the experiment is TolAIII, C-terminal domain of E. coli TolA (residues 302-421) with N-terminal His6 tag (E. coli) (UniProt P19934). The experiment can be described thus: SPR.

Broadly, the Kd is the concentration at which binding is half-saturated. A low value points to tighter binding.

Sequence of UniProt P19934 (P19934 302-421): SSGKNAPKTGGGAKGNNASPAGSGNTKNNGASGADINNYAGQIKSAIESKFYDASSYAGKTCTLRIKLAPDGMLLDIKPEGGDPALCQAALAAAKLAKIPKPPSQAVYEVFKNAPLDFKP

In turn, “TA53-107, residues 53-107 of the translocation domain of colicin A (from UniProt P04480 53-107) (domain or fragment)” registered an equilibrium dissociation constant (Kd) of 1340 nM.

The record behind these values is paper PMC3365938.
